From PMC8258697 (The Journal of Biological Chemistry, 2021)
“And” between values parts separate entries of the source, which are not always exact repeats. Equal values may be shown once.

Key:
[1] = molecular target: T1, biotinylated CBP-1 cofactor peptide (CREB-binding protein coactivator motif 1) (N-terminal biotin); experiment: AlphaScreen or HTRF; as a27, with SR11237 (up to 100 μM) titrated together with unlabeled RXRα total mutant LBD (up to 8 μM); referenced to isolated sGFP-PPARγ LBD activated by rosiglitazone; conditions: both partners purified
T1 construct: coupled to Tb-streptavidin in the assay; also called CBP-1 peptide; CBP-derived peptide; source: bought: Eurogentec GmbH
T1 peptide: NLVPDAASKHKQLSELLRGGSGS

RXRα LBD = molecular target: T2, RXRα LBD (Homo sapiens, UniProt P19793); experiment: LBD:LBD heterodimer formation HTRF assay, sGFP-PPAR LBD titrated against biotinylated RXRα LBD coupled to Tb-SA; format: binding; conditions: sGFP-PPAR LBD titrated up to […]; 0.375 nM RXRα; no ligand; read-out: apparent Kd of heterodimer formation with RXRα LBD
T2 construct: His10-tag with TEV site (N, cleaved yes); made in house; host or cells: E. coli T7 express (co-expressed with GroEL/ES)
T2 sequence (P19793 226-462): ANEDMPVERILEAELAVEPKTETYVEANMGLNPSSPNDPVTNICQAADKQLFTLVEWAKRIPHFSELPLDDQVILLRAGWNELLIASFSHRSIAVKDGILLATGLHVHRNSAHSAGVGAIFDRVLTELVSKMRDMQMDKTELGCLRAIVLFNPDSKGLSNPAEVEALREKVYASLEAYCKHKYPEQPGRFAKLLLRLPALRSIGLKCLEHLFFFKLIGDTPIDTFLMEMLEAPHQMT

[2] = molecular target: the molecule itself; experiment: SEC; size exclusion chromatography during purification; 16/600 Superdex75 (and 16/600 Superdex200 for sGFP-RXRα) in 25 mM Hepes pH 7.5, 150 mM KF, 10% glycerol, 5 mM DTT
[3] = molecular target: T3, biotinylated RXRα LBD (N-terminal Avi-tag) (human, UniProt P19793-1 226-462, biotin on the Lys residue in the Avi-tag); experiment: FRET
T3 chain: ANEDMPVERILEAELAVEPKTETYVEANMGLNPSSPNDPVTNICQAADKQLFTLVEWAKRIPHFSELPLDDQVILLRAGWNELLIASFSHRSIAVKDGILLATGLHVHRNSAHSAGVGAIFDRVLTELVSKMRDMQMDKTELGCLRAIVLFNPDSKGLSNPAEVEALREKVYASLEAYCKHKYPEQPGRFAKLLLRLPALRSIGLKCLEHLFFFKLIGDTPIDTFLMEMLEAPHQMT

sGFP-PPARα LBD = molecular target: T4, sGFP-PPARα LBD (human, UniProt Q07869-1 198-468); experiment: AlphaScreen or HTRF; LBD:LBD dimer formation; biotinylated RXRα LBD (0.375 nM) coupled to Tb-SA (0.75 nM) as FRET donor; sGFP-PPAR LBD titrated up to 4.8 μM, total sGFP kept constant with free sGFP; no ligand; HTRF assay buffer with 0.1% CHAPS and 1% DMSO; 1 h at RT; apparent Kd from the inflection point; conditions: both partners purified
T4 construct: PPARα LBD, human, UniProt Q07869-1, residues 198-468; source: E. coli T7 express, coexpressed with GroEL/ES, purified (Ni IMAC, TEV, reverse IMAC, SEC); not shown: His10, N-terminal, cleaved; sGFP, N-terminal, kept
T4 sequence (looked up): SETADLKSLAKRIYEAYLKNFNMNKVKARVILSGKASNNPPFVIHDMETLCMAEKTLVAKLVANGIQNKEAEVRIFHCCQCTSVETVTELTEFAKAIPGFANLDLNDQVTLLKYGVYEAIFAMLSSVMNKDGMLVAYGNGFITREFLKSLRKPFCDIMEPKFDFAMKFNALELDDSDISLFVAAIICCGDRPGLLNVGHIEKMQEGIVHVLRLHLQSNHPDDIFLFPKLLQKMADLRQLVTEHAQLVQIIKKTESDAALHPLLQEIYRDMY

sGFP-PPARβ/δ LBD = molecular target: T5, sGFP-PPARβ/δ LBD (human, UniProt Q03181-1 170-441); experiment: as above; conditions: both partners purified
T5 construct: PPARβ/δ LBD, human, UniProt Q03181-1, residues 170-441; also called PPARδ; source: E. coli T7 express, coexpressed with GroEL/ES, purified (Ni IMAC, TEV, reverse IMAC, SEC); not shown: His10, N-terminal, cleaved; sGFP, N-terminal, kept
T5 sequence (looked up): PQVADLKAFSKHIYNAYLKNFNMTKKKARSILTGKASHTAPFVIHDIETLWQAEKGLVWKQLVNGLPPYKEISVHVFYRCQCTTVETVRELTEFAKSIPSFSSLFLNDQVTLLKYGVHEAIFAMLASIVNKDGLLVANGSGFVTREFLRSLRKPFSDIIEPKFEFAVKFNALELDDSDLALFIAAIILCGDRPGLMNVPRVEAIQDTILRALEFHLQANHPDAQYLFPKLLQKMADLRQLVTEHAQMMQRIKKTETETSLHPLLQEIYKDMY

B1: sGFP-PPARγ LBD:RXRα total mutant LBD (unlabeled) heterodimer (complex, human)
chain 1: PESADLRALAKHLYDSYIKSFPLTKAKARAILTGKTTDKSPFVIYDMNSLMMGEDKIKFKHITPLQEQSKEVAIRIFQGCQFRSVEAVQEITEYAKSIPGFVNLDLNDQVTLLKYGVHEIIYTMLASLMNKDGVLISEGQGFMTREFLKSLRKPFGDFMEPKFEFAVKFNALELDDSDLAIFIAVIILSGDRPGLLNVKPIEDIQDNLLQALELQLKLNHPESSQLFAKLLQKMTDLRQIVTEHVQLLQVIKKTETDMSLHPLLQEIYKDLY
chain 2: TSSANEDMPVERILEAELAVEPKTETYVEANMGLNPSSPNDPVTNICQAADKQLFTLTEWAERIPHFSELPLDDQTILLRAGWNELLIASFSHRSIAVKDGILLATGLHVHRNSAHSAGVGAIFDRVLTELVSKMRDMQMDKTELGCLRAIVLFNPDSKGLSNPAEVEALREKVYASLEAYCKHKYPEQPGRFAKLLLRLPALRSIGLKCLEHLFFFKLIGDTPIDTYLMRMLEAPHQMT
notes: PPARγ isoform 2 LBD, human, UniProt P37231-1, residues 234-505; RXRα LBD, human, residues 223-462, five AF-2 mutations; also called LBD:LBD heterodimer with RXRα; source: mixed from the purified E. coli proteins (100 nM sGFP-PPARγ LBD, RXRα total mutant LBD titrated); not shown: His10, N-terminal, cleaved; sGFP, N-terminal, kept; MBP, N-terminal, cleaved; His8, N-terminal, cleaved
CBP-1 recruitment relative to full activation of monomeric PPARγ with rosiglitazone (%) [1]: 26%

B2: PPARα: PPARα LBD as fusion protein with N-terminal sGFP (protein)
chain: SETADLKSLAKRIYEAYLKNFNMNKVKARVILSGKASNNPPFVIHDMETLCMAEKTLVAKLVANGIQNKEAEVRIFHCCQCTSVETVTELTEFAKAIPGFANLDLNDQVTLLKYGVYEAIFAMLSSVMNKDGMLVAYGNGFITREFLKSLRKPFCDIMEPKFDFAMKFNALELDDSDISLFVAAIICCGDRPGLLNVGHIEKMQEGIVHVLRLHLQSNHPDDIFLFPKLLQKMADLRQLVTEHAQLVQIIKKTESDAALHPLLQEIYRDMY
modifications: left off: His10, N-terminal, cleaved | sGFP, N-terminal, kept
Kd (RXRα LBD): 0.072 µM

B3: sGFP-RXRα LBD wildtype (domain or fragment, human, UniProt P19793-1 226-462, looked up)
chain: ANEDMPVERILEAELAVEPKTETYVEANMGLNPSSPNDPVTNICQAADKQLFTLVEWAKRIPHFSELPLDDQVILLRAGWNELLIASFSHRSIAVKDGILLATGLHVHRNSAHSAGVGAIFDRVLTELVSKMRDMQMDKTELGCLRAIVLFNPDSKGLSNPAEVEALREKVYASLEAYCKHKYPEQPGRFAKLLLRLPALRSIGLKCLEHLFFFKLIGDTPIDTFLMEMLEAPHQMT
notes: retinoid X receptor alpha (RXRα) LBD, human, UniProt P19793-1, residues 226-462; only the fractions eluting as monomer in the second SEC were used; also called RXRα as a fusion protein with sGFP; RXRα wt; source: E. coli T7 express, coexpressed with GroEL/ES, purified (Ni IMAC, TEV, two SEC steps); not shown: His10, N-terminal, cleaved; sGFP, N-terminal, kept
stoichiometry N [2]: 2 | Kd [3]: 0.05 µM and 0.028 µM

B4: biotinylated RXRα LBD (N-terminal Avi-tag) (domain or fragment, human, UniProt P19793-1 226-462, looked up)
chain: ANEDMPVERILEAELAVEPKTETYVEANMGLNPSSPNDPVTNICQAADKQLFTLVEWAKRIPHFSELPLDDQVILLRAGWNELLIASFSHRSIAVKDGILLATGLHVHRNSAHSAGVGAIFDRVLTELVSKMRDMQMDKTELGCLRAIVLFNPDSKGLSNPAEVEALREKVYASLEAYCKHKYPEQPGRFAKLLLRLPALRSIGLKCLEHLFFFKLIGDTPIDTFLMEMLEAPHQMT
modifications: biotin on the Lys residue in the Avi-tag
notes: retinoid X receptor alpha (RXRα) LBD, human, UniProt P19793-1, residues 226-462; coupled to Tb-streptavidin in the assay; also called biotin-labeled RXRα LBD; source: E. coli T7 express, coexpressed with GroEL/ES, purified (Ni IMAC, TEV and BirA, monomeric avidin, SEC); not shown: His10, N-terminal, cleaved; Avi-tag, N-terminal, kept
Kd (sGFP-PPARα LBD): 0.072 µM | Kd (sGFP-PPARβ/δ LBD): 0.363 µM

B5: PPARδ: PPARδ LBD as fusion protein with N-terminal sGFP (protein)
chain: PQVADLKAFSKHIYNAYLKNFNMTKKKARSILTGKASHTAPFVIHDIETLWQAEKGLVWKQLVNGLPPYKEISVHVFYRCQCTTVETVRELTEFAKSIPSFSSLFLNDQVTLLKYGVHEAIFAMLASIVNKDGLLVANGSGFVTREFLRSLRKPFSDIIEPKFEFAVKFNALELDDSDLALFIAAIILCGDRPGLMNVPRVEAIQDTILRALEFHLQANHPDAQYLFPKLLQKMADLRQLVTEHAQMMQRIKKTETETSLHPLLQEIYKDMY
modifications: left off: His10, N-terminal, cleaved | sGFP, N-terminal, kept
Kd (RXRα LBD): 0.363 µM
